{"source": "patent US20220153847A1", "about": "(Chugai, published 2022)", "binders": {"B1": {"name": "DQN0139bb//IC17 (bispecific antibody, human IgG1, kappa)", "heavy 1": "QSLEESGGRLVTPGTALTLTCTVSGFSLSSYAMGWVRQAPGKGLEYIGWTSPGDSAYYASWTKGRFTISRTSTTVELKITSPTTEDTATYFCARDAAYIGHWAFNLWGPGTLVTVSSASTKGPSVFPLAPSSKSTSGGTAALGCLVKDYFPEPVTVSWNSGALTSGVHTFPAVLQSSGLYSLSSVVTVPSSSLGTQTYICNVNHKPSNTKVDKRVEPKSCDKTHTCPPCPAPELRRGPSVFLFPPKPKDTLMISRTPEVTCVVVDVSHEDPEVKFNWYVDGVEVHNAKTKPREEQYNSTYRVVSVLTVLHQDWLNGKEYKCKVSNKALPAPIEKTISKAKGQPREPQVYTLPPSREEMTKNQVSLTCLVKGFYPSDIAVEWESNGQPENNYKTTPPYLDSDGSFFLYSKLTVDKSRWQQGNVFSCSVMHEALHNHYTQESLSLSP", "light 1": "DVVMTQTPASVSAPVGGTVTINCQASESIYSNLAWYQQKPGQPPKLLIYGASTLESGVPSRVKGSGYGTQFTLTISDLECADAATYYCQQYYGSSSTAFTFGGGTKVEIKRTVAAPSVFIFPPSDEQLKSGTASVVCLLNNFYPREAKVQWKVDNALQSGNSQESVTEQDSKDCTYSLSSTLTLSKADYEKHKVYACEVTHQGLSSPVTKSFNRGEC", "heavy 2": "QVQLQQSGPQLVRPGASVKISCKASGYSFTSYWMHWVNQRPGQGLEWIGMIDPSYSETRLNQKFKDKATLTVDKSSSTAYMQLSSPTSEDSAVYYCALYGNYFDYWGQGTTLTVSSASTKGPSVFPLAPSSKSTSGGTAALGCLVKDYFPEPVTVSWNSGALTSGVHTFPAVLQSSGLYSLSSVVTVPSSSLGTQTYICNVNHKPSNTKVDKRVEPKSCDKTHTCPPCPAPELRRGPSVFLFPPKPKDTLMISRTPEVTCVVVDVSHEDPEVKFNWYVDGVEVHNAKTKPREEQYNSTYRVVSVLTVLHQDWLNGKEYKCKVSNKALPAPIEKTISKAKGQPREPQVYTLPPSRKEMTKNQVSLTCLVKGFYPSDIAVEWESNGQPENNYKTTPPYLDSDGSFFLYSKLTVDKSRWQQGNVFSCSVMHEALHNHYTQKSLSLSP", "light 2": "DIQMTQSSSSFSVSLGDRVTITCKASEDIYNRLAWYQQKPGNAPRLLISGATSLETGVPSRFSGSGSGKDYTLSITSLQTEDVATYYCQQYWSTPYTFGGGTKLEVKRTVAAPSVFIFPPSDEQLKSGTASVVCLLNNFYPREAKVQWKVDNALQSGNSQESVTEQDSKDSTYSLSSTLTLSKADYEKHKVYACEVTHQGLSSPVTKSFNRGEC"}}, "biological_target": "HLA-DQ2.5/33mer gliadin peptide on IHW9088 cells (human)", "assay": "cell-based or functional assay"}
{"binder": "B1", "values": [{"measurement": "IC50 (read off the curve)", "result": "~0.4", "unit": "microgram/mL"}]}
